Paper PMC3644091

Molecular target: IP39, 39-kDa integral membrane protein of Euglena gracilis (Euglena gracilis)
Test: cryo-EM structure

stoichiometry N: 3
Substance: IP39, 39-kDa integral membrane protein of Euglena gracilis (natural protein)
